Measurements taken from the supplement of paper PMC9112550, “Optimization of the antimicrobial peptide Bac7 by deep mutational scanning” (BMC Biology, 2022).

test system: Escherichia coli TOP10; assay: shrunken log2 fold change of peptide-encoding DNA abundance (4.5 h post-induction vs induction); higher = less antimicrobial activity (less host growth inhibition); conditions: time post-induction: 4.5 h; library: site-saturation at positions 5, 18, 19, 20
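Also: peptides expressed intracellularly from a pBAD plasmid library in pooled LB shake-flask culture, induced with 0.3% L-arabinose, DNA abundance read by NGS, three biological replicates, DESeq2 with apeglm shrinkage.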

Sequence | shrunken log2 fold change
RRIRRRPPRLPRPRPRPWDPPRP | -0.119
RRIRTRPPRLPRPRPRPNIVPRP | -0.192
RRIRMRPPRLPRPRPRPCIFPRP | 0.0107
RRIRLRPPRLPRPRPRPMPWPRP | 0.276
RRIRHRPPRLPRPRPRPSFSPRP | -0.483
RRIRSRPPRLPRPRPRPSGTPRP | -0.494
RRIRPRPPRLPRPRPRPHEPPRP | 0.239
RRIRQRPPRLPRPRPRPLRWPRP | 0.585
RRIRLRPPRLPRPRPRPRWHPRP | 0.199
RRIRGRPPRLPRPRPRPPIEPRP | 0.196
RRIRFRPPRLPRPRPRPVWAPRP | 0.137
RRIRLRPPRLPRPRPRPGEEPRP | 0.143
RRIRFRPPRLPRPRPRPLCCPRP | -0.205
RRIRMRPPRLPRPRPRPCLFPRP | -0.155
RRIRQRPPRLPRPRPRPYSFPRP | -0.141
RRIRFRPPRLPRPRPRPNLFPRP | -0.0917
RRIRPRPPRLPRPRPRPLNWPRP | 0.0566
RRIRCRPPRLPRPRPRPYSGPRP | -0.566
RRIRDRPPRLPRPRPRPELYPRP | 1.13
RRIRLRPPRLPRPRPRPKWSPRP | -0.171
RRIRCRPPRLPRPRPRPLQSPRP | 0.113
RRIRDRPPRLPRPRPRPSMMPRP | 0.636

Sequence | shrunken log2 fold change
RRIRNRPPRLPRPRPRPGSDPRP | -0.0348
RRIRQRPPRLPRPRPRPSEEPRP | -0.226
RRIRQRPPRLPRPRPRPRKLPRP | 0.0501
RRIRGRPPRLPRPRPRPWDLPRP | -0.0503
RRIRIRPPRLPRPRPRPQRCPRP | -0.0109
RRIRERPPRLPRPRPRPHPEPRP | -0.073
RRIRTRPPRLPRPRPRPGRGPRP | 0.605
RRIRIRPPRLPRPRPRPWMEPRP | -0.172
RRIRSRPPRLPRPRPRPMSDPRP | -0.195
RRIRVRPPRLPRPRPRPNNIPRP | -0.937
RRIRCRPPRLPRPRPRPDLQPRP | -0.00569
RRIRERPPRLPRPRPRPYNDPRP | 0.0352
RRIRKRPPRLPRPRPRPCAEPRP | 0.951
RRIRDRPPRLPRPRPRPRYMPRP | -0.233
RRIRPRPPRLPRPRPRPAKGPRP | 0.403
RRIRLRPPRLPRPRPRPLTTPRP | -0.0027
RRIRVRPPRLPRPRPRPEYMPRP | -0.305
RRIRVRPPRLPRPRPRPRTKPRP | 0.0796
RRIRLRPPRLPRPRPRPHILPRP | -0.0127
RRIRIRPPRLPRPRPRPMNPPRP | -0.372
RRIRIRPPRLPRPRPRPNCDPRP | -0.486
RRIRLRPPRLPRPRPRPQQTPRP | 0.168

Sequence | shrunken log2 fold change
RRIRHRPPRLPRPRPRPVQYPRP | 0.00489
RRIRPRPPRLPRPRPRPASSPRP | 0.0138
RRIRVRPPRLPRPRPRPAGSPRP | 0.29
RRIRDRPPRLPRPRPRPKERPRP | -0.0193
RRIRCRPPRLPRPRPRPANHPRP | -0.282
RRIRHRPPRLPRPRPRPIHWPRP | -0.0298
RRIRKRPPRLPRPRPRPCNFPRP | -0.132
RRIRIRPPRLPRPRPRPDYYPRP | -0.155
RRIRLRPPRLPRPRPRPSLLPRP | -0.254
RRIRSRPPRLPRPRPRPIYTPRP | -0.548
RRIRCRPPRLPRPRPRPWRPPRP | 0.0893
RRIRGRPPRLPRPRPRPERHPRP | 0.834
RRIRVRPPRLPRPRPRPHRCPRP | 0.0572
RRIRTRPPRLPRPRPRPHNFPRP | -0.0359
RRIRARPPRLPRPRPRPGDCPRP | 0.366
RRIRARPPRLPRPRPRPGHEPRP | 0.054
RRIRKRPPRLPRPRPRPVDAPRP | 0.493
RRIRYRPPRLPRPRPRPDYNPRP | -0.475
RRIRCRPPRLPRPRPRPWNSPRP | -0.529
RRIRFRPPRLPRPRPRPCRFPRP | -0.607
RRIRYRPPRLPRPRPRPVRKPRP | 0.195
RRIRERPPRLPRPRPRPDENPRP | -0.0287

Sequence | shrunken log2 fold change
RRIRERPPRLPRPRPRPLHWPRP | 0.0186
RRIRTRPPRLPRPRPRPGHIPRP | -0.289
RRIRKRPPRLPRPRPRPNYFPRP | -0.303
RRIRYRPPRLPRPRPRPGSMPRP | -0.182
RRIRVRPPRLPRPRPRPGPNPRP | 0.0445
RRIRPRPPRLPRPRPRPGVCPRP | 0.428
RRIRHRPPRLPRPRPRPKMIPRP | -0.254
RRIRQRPPRLPRPRPRPITPPRP | -0.0347
RRIRRRPPRLPRPRPRPCKIPRP | 0.0604
RRIRERPPRLPRPRPRPQESPRP | -0.239
RRIRRRPPRLPRPRPRPKIQPRP | 0.0197
RRIRWRPPRLPRPRPRPPCCPRP | 0.198
RRIRERPPRLPRPRPRPKKSPRP | -0.182
RRIRDRPPRLPRPRPRPYTTPRP | -0.556
RRIRFRPPRLPRPRPRPSLCPRP | -0.348
RRIRARPPRLPRPRPRPNYQPRP | -0.418
RRIRCRPPRLPRPRPRPNEYPRP | -0.587
RRIRCRPPRLPRPRPRPTWPPRP | 0.371
RRIRCRPPRLPRPRPRPCKRPRP | -0.115
RRIRPRPPRLPRPRPRPMDCPRP | -0.00833
RRIRTRPPRLPRPRPRPFRSPRP | -0.144
RRIRIRPPRLPRPRPRPWFQPRP | -0.0137

Sequence | shrunken log2 fold change
RRIRRRPPRLPRPRPRPSLVPRP | 0.243
RRIRRRPPRLPRPRPRPQATPRP | 0.233
RRIRCRPPRLPRPRPRPDQPPRP | 0.171
RRIRKRPPRLPRPRPRPCMVPRP | 0.309
RRIRVRPPRLPRPRPRPGWRPRP | 0.49
RRIRTRPPRLPRPRPRPGPLPRP | 0.185
RRIRQRPPRLPRPRPRPPFDPRP | 0.283
RRIRMRPPRLPRPRPRPVCDPRP | 0.367
RRIRFRPPRLPRPRPRPSAAPRP | 0.346
RRIRQRPPRLPRPRPRPYKHPRP | -0.161
RRIRARPPRLPRPRPRPVWDPRP | 0.312
RRIRCRPPRLPRPRPRPTTWPRP | -0.125
RRIRIRPPRLPRPRPRPQADPRP | -0.0941
RRIRERPPRLPRPRPRPFYNPRP | -0.306
RRIRMRPPRLPRPRPRPACQPRP | 0.141
RRIRLRPPRLPRPRPRPEKYPRP | -0.397
RRIRMRPPRLPRPRPRPGMCPRP | 0.19
RRIRLRPPRLPRPRPRPKIGPRP | -0.251
RRIRLRPPRLPRPRPRPKSIPRP | -0.189
RRIRERPPRLPRPRPRPQQRPRP | 0.0285
RRIRCRPPRLPRPRPRPFPDPRP | -0.415
